Legend:
[1] = tested on: Oc1cc2c(cc1O)C1Cc3ccc(O)c(O)c3CN1CC2; assay: purified protein; details: 100 mM Tris-HCl, 37 °C, substrate 50-500 μM, methyl donor SAM (concentration and pH not given)
PsSOMT = target: T1, PsSOMT (Papaver somniferum, UniProt I3PLQ7); details: 100 mM Tris-HCl, 37 °C, substrate 50-500 μM; methyl donor SAM (concentration and pH not given)
T1 construct: gene SOMT3
T1 sequence (I3PLQ7 whole entry): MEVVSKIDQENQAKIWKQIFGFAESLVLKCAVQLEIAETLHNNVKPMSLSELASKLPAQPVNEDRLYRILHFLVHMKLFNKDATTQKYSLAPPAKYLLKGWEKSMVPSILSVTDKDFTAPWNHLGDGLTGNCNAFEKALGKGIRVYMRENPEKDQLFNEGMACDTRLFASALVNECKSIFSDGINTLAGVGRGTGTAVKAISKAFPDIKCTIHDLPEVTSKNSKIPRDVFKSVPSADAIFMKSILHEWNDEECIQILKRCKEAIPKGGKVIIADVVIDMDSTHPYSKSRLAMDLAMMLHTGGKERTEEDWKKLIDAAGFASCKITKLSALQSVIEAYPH

Work on Cj4’OMT (Coptis japonica) yielded a Km [1] of 83.50 ± 19.72 µM, a Vmax [1] of 1.09 µmol/min/mg and a kcat [1] of 1.09 ± 0.08 s⁻¹. It also gave a kcat/Km [1] of 13000 M⁻¹ s⁻¹.

With `Oc1cc2c(cc1O)C1Cc3ccc(O)c(O)c3CN1CC2` (centres unmarked) [2,3,9,10-tetrahydroxyberbine] the Km (PsSOMT) was 53.8 ± 12 µM.
